Consider three molecules from patent US20140248684A1, “COMPOSITIONS AND METHODS FOR THE PRODUCTION AND USE OF HUMAN CHOLINESTERASES” (priority 2011, published 2014).

Entries after “also recorded” stand apart in the source; their conditions may differ. Where two headings read alike, the source gives them in different places.

In data set [1] the test system is guinea pigs. The data set is described as follows: Succinylcholine lethality in guinea pigs. The class given is in vivo. The following applies: intravenous. An excerpt: To further understand the effect and kinetics of BChE-mediated SC detoxification using continuous vital sign monitoring, the inventors moved to a larger rodent model of SC toxicity. […] At no point following loss of measurable pulse and venous oxygen saturation did these signs return in animals receiving SC 0.9% saline.

In data set [2] the test system is mice. The following applies: mice (Lewis, 1996); cited from earlier work.
The conditions of data set [3]: reported value (Sun et al., 2002); read-out: KM, cocaine hydrolysis; cited from earlier work.
For data set [4] the following is noted: previously published (Lockridge, 1990), thioester analog assay, cited from earlier work.
Data set [5] relates to SC-induced apnea. In words: Reversal of succinylcholine-induced apnea in guinea pigs. It is filed as in vivo, Male Hartley guinea pigs (Cavia porcellus). On the procedure: Guinea pig experiments were conducted as follows. Male Hartley guinea pigs (Cavia porcellus, 8 weeks old) were anesthetized with 90 mg/kg ketamine and 10 mg/kg xylazine. Once anesthetized, baseline heart rate (beats per minute) and Sp02 (%) were obtained using a Surgivet Plus Veterinary Anesthesia and Monitoring Module, model #V3404. Guinea pigs were then injected intravenously (leg vein) with 0.334 mg/kg SC (time 0). Heart rate and Sp02 were obtained every minute throughout the course of the experiment. At time+1 min, groups of three apneic guinea pigs were injected with either pBChE (0.19 mg/kg, ˜48 Upper animal) in 0.9% saline (or 0.9% saline vehicle control). At time+15 minutes all surviving guinea pigs were euthanized by CO2 asphyxiation and subsequent cervical dislocation. As above, guinea pigs received no additional care or therapy during experimentation.
Statistical significance of differences between means of heart rate and Sp02 was tested using 1-way analysis of variance (ANOVA) followed by Bonferronits Multiple Comparison Test.

The nature of data set [6]: Succinylcholine hydrolase activity assay (96-well, choline oxidase/peroxidase). The class given is biochemical. How it is done: Assay of butyrylcholine hydrolysis followed the method of Ellman as described in (Geyer et al., 2010). Succinylcholine hydrolase activity was monitored by the method of George and co-workers (George et al., 1988) with modifications to fit a 96-well plate format. Briefly, our standard succinylcholine-hydrolysis buffer contained 100 mM NaH2PO4/Na2HPO4 buffer pH 7.5, 0.77 mM phenol, 0.15 mM 4-aminoantipyrine, 1 U/mL choline oxidase, and 1.2 U/mL horse raddish peroxidase type I. Appropriate volumes of 10× stock solutions (in 100 mM NaH2PO4/Na2HPO4 buffer pH 7.5) were pre-mixed and dispensed at 160 μL aliquotes onto 96-well plates followed by addition of the substrate succinylcholine chloride (20 μl, final concentrations as indicated). Reactions were started by addition of pBChE (4.74 nM) to yield a final well volume of 200 μl. Hydrolysis was monitored by recording absorbance changes at 500 nm. Self hydrolysis rates were measured on samples that contained no enzyme and were subtracted from the enzymatically catalyzed reaction rates. A choline standard curve was similarly created by using the same assay except that choline chloride replaced succinylcholine (final concentration range of 10-100 μM).
Kinetic analysis was done according to Radic et al. (Radic et al., 1993) as follows. Initial enzyme velocity, V0, was plotted as a function of substrate concentration and the results were fitted by nonlinear regression using GraphPad Prism to the following equation: […]
where [SC] is the concentration of SC, Vmax is maximal velocity, KM is the Michaelis-Menten constant, KSS is the dissociation constant of substrate from the enzyme's peripheral binding site, and b a factor that reflect the efficiency of hydrolysis of the substrate in the presence of another substrate molecule bound at the peripheral site (with substrate activation when b>1).

In data set [7] the test system is SC-induced apnea. In words: Reversal of succinylcholine-induced apnea in mice. It is filed as in vivo, Male FVB/N mice (Mus musculus). How it is done: Mouse experiments were conducted as follows. Male FVB/N mice (Mus musculus, 8-12 weeks old) were anesthetized by injection of ketamine/xylazine/acepromazide cocktail at the dose of 0.05 mL per 25 g of total body weight (concentrations were, respectively 21 mg/mL, 2.4 mg/mL, and 0.3 mg/mL). Anesthetized mice were assessed for respiratory rate by counting respirations for 30 seconds using a Littman model 3000 electronic stethoscope placed on the mouse left mid axillary line and extrapolating the per minute rate. Mice were then injected intravenously (tail vein) with 1 mg/kg succinylcholine (time 0 min). At time+3 min mice were injected with pBChE (0.6 mg/kg, ˜15 Upper animal) in 0.9% saline (or 0.9% saline vehicle control) and respiratory rate was obtained as above at the indicated time points. At time+15 minutes all surviving mice were euthanized by CO2 asphyxiation and subsequent cervical dislocation. At no time during the experiment did the mice receive any other therapy including, but not limited to, airway protection/management, artificial ventilations, compressions, or any pharmacological assistance.
Statistical analyses were carried out using the GraphPad Prism software. Log-rank (Mantel-Cox) test was used to determine significance of the difference between survival curves.

[8] abbreviates: 0.334 mg/kg SC i.v., 48 U BChE at 1 min, 3 min following SC injection.

In data set [1], `C[N+](C)(C)CCOC(=O)CCC(=O)OCC[N+](C)(C)C` [SC, succinylcholine] registered an LD100 of 0.334 mg/kg. The LD50 (in general, the dose at which mortality reaches 50%) in data set [2] was 0.28 mg/kg.

B1: WT BChE (protein, UniProt P06276 29-602, looked up)
Cholinesterase: EDDIIIATKNGKVRGMNLTVFGGTVTAFLGIPYAQPPLGRLRFKKPQSLTKWSDIWNATKYANSCCQNIDQSFPGFHGSEMWNPNTDLSEDCLYLNVWIPAPKPKNATVLIWIYGGGFQTGTSSLHVYDGKFLARVERVIVVSMNYRVGALGFLALPGNPEAPGNMGLFDQQLALQWVQKNIAAFGGNPKSVTLFGESAGAASVSLHLLSPGSHSLFTRAILQSGSFNAPWAVTSLYEARNRTLNLAKLTGCSRENETEIIKCLRNKDPQEILLNEAFVVPYGTPLSVNFGPTVDGDFLTDMPDILLELGQFKKTQILVGVNKDEGTAFLVYGAPGFSKDNNSIITRKEFQEGLKIFFPGVSEFGKESILFHYTDWVDDQRPENYREALGDVVGDYNFICPALEFTKKFSEWGNNAFFYYFEHRSSKLPWPEWMGVMHGYEIEFVFGLPLERRDNYTKAEEILSRSIVKRWANFAKYGNPNETQNNSTSWPVFKSTEQKYLTLNTESTRIMTKLRAQQCRFWTSFFPKVLEMTGNIDEAEWEWKAGFHRWNNYMMDWKNQFNDYTSKKESCVGL
For B1, the Michaelis-Menten constant (Km) (usually the concentration of substrate that gives half-maximal velocity) in data set [3] was 4.5 µM; in data set [4] (read-out: KM, succinylcholine), 35 µM. The “Kcat, succinylcholine” value in data set [4] was 600 min⁻¹.

B2: pBChE (protein, UniProt P06276 29-602, looked up)
Cholinesterase: EDDIIIATKNGKVRGMNLTVFGGTVTAFLGIPYAQPPLGRLRFKKPQSLTKWSDIWNATKYANSCCQNIDQSFPGFHGSEMWNPNTDLSEDCLYLNVWIPAPKPKNATVLIWIYGGGFQTGTSSLHVYDGKFLARVERVIVVSMNYRVGALGFLALPGNPEAPGNMGLFDQQLALQWVQKNIAAFGGNPKSVTLFGESAGAASVSLHLLSPGSHSLFTRAILQSGSFNAPWAVTSLYEARNRTLNLAKLTGCSRENETEIIKCLRNKDPQEILLNEAFVVPYGTPLSVNFGPTVDGDFLTDMPDILLELGQFKKTQILVGVNKDEGTAFLVYGAPGFSKDNNSIITRKEFQEGLKIFFPGVSEFGKESILFHYTDWVDDQRPENYREALGDVVGDYNFICPALEFTKKFSEWGNNAFFYYFEHRSSKLPWPEWMGVMHGYEIEFVFGLPLERRDNYTKAEEILSRSIVKRWANFAKYGNPNETQNNSTSWPVFKSTEQKYLTLNTESTRIMTKLRAQQCRFWTSFFPKVLEMTGNIDEAEWEWKAGFHRWNNYMMDWKNQFNDYTSKKESCVGL
Turning to B2, in data set [5] (setting [8]), the heart rate result is “at baseline”, the spontaneous respirations result is on record as “return of spontaneous respirations” and the venous oxygenation was 49%. The heart rate response result in data set [5] (0.334 mg/kg SC i.v., 48 U BChE at 1 min, 5 min post SC injection) was “post-anoxic tachycardia”. In data set [5] (0.334 mg/kg SC i.v., 48 U BChE at 1 min, time post SC injection), the “time by which all vital signs had returned to baseline” value was at most 7 min. Moreover, the “protection from high-dose SC-induced apnea” value in data set [5] (high-dose SC, FIG. 21) is given as “fully protects”. For the same molecule, the “return of normal vital signs” value in data set [5] (sublethal doses of SC, FIG. 20) was “promotes return of normal vital signs”. The “turnover number Kcat=Vmax/[BChE]T, succinylcholine hydrolysis” value in data set [6] ([BChE]=4.74 nM) is 516 ± 33 min⁻¹. In addition, in data set [6] ([BChE]=4.74 nM, ±SEM, nonlinear regression), the “Vmax, succinylcholine hydrolysis” value came out at 2.45 ± 0.16 µM/min. Further, in data set [6] (±SEM, nonlinear regression), the “Kss (dissociation constant of substrate from peripheral binding site)” value was 2.0 ± 0.3 mM. In addition, the Km in data set [6] (±SEM, nonlinear regression, read-out: KM, succinylcholine hydrolysis) came out at 57 ± 7 µM. In data set [6] (±SEM, substrate activation when b>1), the “b (substrate activation factor)” value came out at 2.9±0.1. In data set [7] (1 mg/kg SC i.v., 15 U (0.6 mg/kg) pBChE at 3 min, three mice), the survival result is listed as “survived; also recorded: survival of all pBChE-treated mice”. The “protection from SC-induced apnea” value in data set [7] (respiration rate monitored, FIG. 19) was “protects mice from SC-induced apnea”.
